Assay results taken from patent US20200207859A1 (priority 2017, published 2020).

How the values were obtained:
[1] = system: K562 (CML); test: Cell killing assay (cell proliferation, Cell Titer-Glo); format: cell-based; parameters: key to Cell Killing Activity Span: NK = no killing; NB = no binding; settings: 72 hrs
Procedure: (§1) Cytotoxicity effects of the free drug linkers and conjugates were measured with a cell proliferation assay. A total of 12500 cells in a volume of 25 μl were seeded in a 384-well flat bottom white polystyrene plate on the day of assay. Free drug-linkers and conjugates were formulated at 2× starting concentration (1000 nM for free drug linkers and 100 nM for ADCs) in RPMI medium and filtered through MultiScreen HTS 96-Well Filter Plates (Millipore). Filter sterilized samples were serial diluted (1:3) under sterile conditions and added into treatment wells. Plates were cultured at 37° C. in a CO2 incubator for 72 hrs. For cell viability measurement, 30 μl of Cell Titer-Glo® reagent (Promega Corp.) was added into each well, and plates processed as per product instructions. Relative luminescence was measured on an ENVISION® plate reader (Perkin-Elmer; Waltham, Mass.). Relative luminescence readings were converted to % viability using untreated cells as controls. Data was fitted with non-linear regression analysis, using log(inhibitor) vs. response, variable slope, 4 parameter fit equation using GraphPad Prism. Data was expressed as % relative cell viability vs. dose of free drug-linker or conjugate in nM.

[2] = system: OPM-2 (MM); test: as above; format: cell-based; parameters: key to Cell Killing Activity Span: NK = no killing; NB = no binding; settings: 72 hrs
Procedure: as §1

[3] = system: RPMI-8226 (MM); test: as above; format: cell-based; parameters: key to Cell Killing Activity Span: NK = no killing; NB = no binding; settings: 72 hrs
Procedure: as §1

[4] = system: SUP-B15 (ALL); test: as above; format: cell-based; settings: 72 hrs
Procedure: as §1

[5] = system: HH T lymphoma cells; test: T lymphoma cell line cell killing assay; format: cell-based; settings: 120 hours
Procedure: (§2) A total of 12500 cells in a volume of 25 μL were seeded in a 384-well flat bottom white polystyrene plate the day before the assay. […] Filter-sterilized compounds were serial diluted in culture medium and 25 μL of the compounds were added into treatment wells in quadruplicates. Plates were cultured at 37° C. in a CO2 incubator for 120 hours. For cell viability measurement, 30 μL of Cell Titer-Glo® reagent (Promega Corp.; Madison, Wis.) was added into each well, and plates were processed per product instructions. Relative luminescence was measured on an ENVISION® plate reader (Perkin-Elmer; Waltham, Mass.). Relative luminescence readings were converted to percent (%) viability using untreated cells as controls. Data was fitted with non-linear regression analysis, using log(inhibitor) vs. response, variable slope, 4-parameter fit equation using GraphPad Prism (GraphPad v 5.00, Software; San Diego, Calif.). Data was expressed as percent (%) relative cell viability (average of the quadruplicates) vs. dose of compounds in units of nanomolar (nM). Cell killing EC50 values and span were calculated by Prism in order to evaluate the potency of each compound on each cell line.

[6] = system: HuT-78 T lymphoma cells; test: T lymphoma cell line cell killing assay; format: cell-based; settings: HuT-78, 120 hours
Procedure: as §2

[7] = system: My-La T lymphoma cells; test: T lymphoma cell line cell killing assay; format: cell-based; settings: 120 hours
Procedure: as §2

[8] = system: Jurkat T leukemia cells; test: T lymphoma cell line cell killing assay; format: cell-based; parameters: key to Cell killing Span: NC = Not Calculable; NK = No Killing; settings: 120 hours
Procedure: as §2

[9] = system: MJ T lymphoma cells; test: T lymphoma cell line cell killing assay; format: cell-based; parameters: key to Cell killing Span: NC = Not Calculable; NK = No Killing; settings: 120 hours
Procedure: as §2

[10] = system: MM.1S multiple myeloma cells; test: Disseminated MM.1S multiple myeloma model; format: in vivo, mouse; settings: NSG mice; for survival: MM.1S i.v., day 129 post inoculation; for tumor burden: hCD138+ myeloma cells in the bone marrow / hCD138+ cells in the bone marrow: MM.1S; for tumor burden: hCD138+ myeloma cells in the bone marrow: day 32; for hCD138+ cells in the bone marrow: day 129
Procedure: Female NOD SCID gamma (NSG) mice 8 weeks of age were inoculated with multiple myeloma MM.1S cells into the tail vein. Randomization by body weight and start of treatment was initiated 11 days post tumor inoculation. Treatment groups are outlined in Table 5. Test articles were formulated in 10 mM citrate, pH 6.0, 10% sucrose and diluted in PBS for administration. […] For each group, a subset of animals was used for bone marrow harvest and analysis (n=3) and the remaining animals (n=5) were monitored for survival. Survival endpoint was characterized by >20% body weight loss and clinical signs including lethargy, hind limb paralysis or moribundity. On day 32 (3 weeks after start of treatment), 3 animals from each group were randomly chosen to be euthanized for bone marrow harvest (pooled from tibia and femur) for flow cytometry. On day 129 (˜4 months after start of treatment), all surviving animals were euthanized and bone marrow was harvested (pooled from tibia and femur) for flow cytometry.
Body weights were monitored at least twice per week for up to 129 days. All graphs are presented as mean±standard error of the mean (SEM) versus days post-treatment start.
Percent body weight change (BWC) is calculated relative to weight on the day of treatment. Substantial toxicity was defined as a >20% decrease in animal weight, at which point affected animals are euthanized.
Bone marrow cells from mouse femur and tibia were pooled and assessed for human CD138 expression using the Alexa Fluor 647 mouse anti-human CD138 clone MI15 (BD Biosciences #562097) according to the manufacturer's protocol. CD138 is a specific surface antigen for MM and plasma cells in the bone marrow (Chilosi, M. et al. (1999), supra). Direct immunofluorescence flow cytometric analysis was performed using an LSRII flow cytometer and FACS Diva Software. Data was analyzed using Flowjo (Tree Star, Inc., Ashland, Oreg.).
Human CD138+ cells in the bone marrow on day 32 was analyzed using one-way analysis of variance (ANOVA) with a Dunnett's adjustment at 0.05 significance level. Data from MM.1 s positive control were excluded from analysis. A probability of less than 5% (p<0.05) was considered as significant.

B1: Conjugate A: anti-CD74 IgG with pAMF at heavy chain EU position 404 conjugated to DBCO-PEG4-maytansine (conjugate)
VH: QVQLVESGGGVVQPGRSLRLSCAASGFNFSDYGMHWVRQAPGKGLEWVAVIWYDGSISYYADSVKGRFTISRDNSKNTLYLQMNSLRAEDTAVYYCARGGTVEHGAVYGTDVWGQGTTVTVSS
VL: DIQMTQSPSSVSASVGDRVTITCRASQGIGSWLAWYQQKPGKAPKLLIYAADRLQSGVPSRFSGSGSGTDFTLTISSLQPEDFATYYCQQYHTYPLTFGGGTKVEIK
modifications: non-natural residues
[1]
  Cell Killing Activity Span: NK
  IC50: > 50 nM
[2]
  Cell Killing Activity Span: NK
  IC50: > 50 nM
[3]
  Cell Killing Activity Span: NK
  IC50: > 50 nM
[4]
  Cell Killing Activity Span: 64%
[4]; listed as A
  Cell Killing Activity Span: 65%
[5]
  Cell killing Span: 77%
  EC50: 0.22 nM
  cell killing activity (in words): potent cell killing activity
[6]
  Cell killing Span: 72%
  EC50: 0.59 nM
  cell killing activity (in words): potent cell killing activity
[7]
  Cell killing Span: 73%
  EC50: 0.54 nM
  cell killing activity (in words): potent cell killing activity
[8]
  Cell killing Span: NK
  EC50: > 50 nM
  cell killing activity (in words): No cell killing was observed
[9]
  Cell killing Span: NC
  cell killing activity (in words): less potent cell killing
[10]; 3 mg/kg q7dx3 IV
  survival: 100%
  tumor burden: hCD138+ myeloma cells in the bone marrow: significantly reduced tumor burden
  hCD138+ cells in the bone marrow: no hCD138+ cells were detected
[10]; 10 mg/kg q7dx3 IV
  survival: 100%
  tumor burden: hCD138+ myeloma cells in the bone marrow: significantly reduced tumor burden
  hCD138+ cells in the bone marrow: no hCD138+ cells were detected
